Test results as given in US8455447B2, “Modified therapeutic agents” (priority 2002, dated 2013).
Like-named read-outs stand apart in the source and are kept apart here. Ends that are not written are not given here.

Tests used:
Type in all cases: cell-based
sheep erythrocytes [1] = experiment: Anti-haemolytic assay: classical pathway mediated haemolysis of sheep erythrocytes, presence of bovine serum albumin; conditions: 40 mg/ml BSA (fatty acid free); non-stick plates; Example 3; read-out: IH50 (the source's name)
Description: Anti-Complement Activity of Acylated Peptide/APT154 Conjugates in the Presence of Bovine Serum Albumin (BSA)
7 wells of each of 4 lanes, missing the uppermost well, on a flat-bottomed microtitre plate were filled with 200 μL of the BSA/diluent solution. Into the uppermost wells, the required volume each test/control sample (APT3328, APT33330, APT33331 and APT070) was aliquotted, immediately followed by enough BSA/diluent solution to make the total volume up to 300 μL, to ensure a final concentration of 1.2 μM.
These 1.2 μM wells were then diluted across a 3 log dilution gradient and the rest of the assay performed as for the peptide/APT154 conjugates. The BSA diluent solution was used instead of pure diluent except for the Ao lane of the reaction plate, for which pure diluent (50 μL) and the BSA/diluent solution (50 μL) were aliquotted. The whole assay was repeated.
[…] In the Ao lane of the reaction plate, for which pure diluent (50 μL) and the BSA/diluent solution (50 μL) were aliquotted.
Multiple anti-haemolytic assays were performed on the reaction mixture of more than one batch of APT3147, in the presence and absence of fatty acid free bovine serum albumin (BSA) at both 4 mg/ml and 40 mg/ml, on non-stick plates.

sheep erythrocytes [2] = experiment: Anti-haemolytic assay: classical pathway mediated haemolysis of sheep erythrocytes, absence of albumin; conditions: No BSA; non-stick plates; Example 3; read-out: IH50 (the source's name)
Description: The Anti-complement activity of the modified SCR1-3 agents was measured by classical pathway mediated haemolysis of sheep erythrocytes.
Step 1—The Dilution Plate
7 wells of each of 9 lanes, missing the uppermost well, on a flat-bottomed microtitre plate were filled with 200 μL of diluent (0.100 M Hepes, 0.150 M NaCl, 0.100% gelatin, adding NaOH to pH 7.4).
Into the uppermost wells, the required volume of each test/control sample was aliquotted, immediately followed by enough diluent to make the total volume up to 300 μL, to ensure a final concentration of 1.2 μM.
Using a multichannel Gilson pipette, all 9 top wells were mixed and 100 μL were transferred from these wells to the corresponding wells in 2nd row. […]
After incubation the plates were centrifuged at 1600 rpm for 3 min and the Nescofilm removed. 150 μL of supernatant from each well of the two plates was then transferred into the corresponding wells of two new microtitre plates and the absorbance of each well measured at 405 nm using a plate reader.
% inhibition was calculated using the following formula:
[formula] wherein: • Ao=the mean value of the absorbances in lane 1 • Amax=the mean value of the absorbances in lane 2 • t=the mean of the two absorbance values for each sample at any given concentration. […]

[3] = system: MAC formation on guinea pig erythrocytes; experiment: Reactive lysis system: inhibition of MAC formation on guinea pig erythrocytes; conditions: for IC50: read-out: IH50 (concentration of protein required to achieve 50% inhibition of lysis)
Description: The ability of APT2439, APT3073 and APT3280 to inhibit MAC formation on guinea pig erythrocytes, was tested in a reactive lysis system. The effect of human albumin (HSA) on this activity was also investigated. Test samples were prepared at a range of concentrations in the presence or absence of 8 mg/ml fatty acid free HSA (Sigma, UK). 50 μL of these dilutions was added to 50 μL of a 5% suspension of guinea pig erythrocytes in PBS/0.1% gelatin, and incubated for 30 minutes at 37° C. 10 μL of human C5b6 complex (C5b6 was partially purified from acute phase serum) in PBS containing 15 mM EDTA and 0.1% gelatin, was added to the guinea pig erythrocyte suspension. 40 μL of normal human serum, diluted in PBS containing 15 mM EDTA and 0.1% gelatin was added as a source of C7, C8 and C9, and the suspension was incubated for 1 hour at 37 degrees Celsius. (The concentrations of C5b6 and normal human serum required to achieve about 80% lysis of guinea pig erythrocytes was pre-determined by titration.) The reaction mixtures were centrifuged for 5 minutes at 1000×g and the degree of haemolysis was determined by measuring the absorbance of the supernatant at 410 nm. To determine background lysis, a control reaction was prepared without serum. To determine maximal lysis, a control reaction containing no inhibitor (or test sample) was prepared. The percentage inhibition of haemolysis was determined for each protein at each concentration. An IH50 value (the concentration of protein required to achieve 50% inhibition of lysis) was determined for each protein in the presence and absence of HSA.

## APT3147: bismyr-GSSKSPSKKKKKKPGDC conjugated to SCR1-3; SEQ ID NO: 26; two myristoyl groups (not fully specified (N-terminus); printed as bismyr-GSSKSPSKKKKKKPGDC; also: two myristoyl groups (bismyr-), places not given here, conjugated to SCR1-3) [bismyr-… conjugated to SCR1-3; two myristoyl groups]
Sheep erythrocytes [1]
  IC50: 2.2 nM
Sheep erythrocytes [2]
  IC50: 2.2 nM

B1: APT2439: Recombinant human CD59 (lacking the GPI anchor), with an amino-terminal methionine and a carboxy-terminal cysteine, expressed in E. coli (protein)
chain: MLQCYNCPNPTADCKTAVNCSSDFDACLITKAGLQVYNKCWKFEHCNFNDVTTRLRENELTYYCCKKDLCNFNEQLENC
[3]; Presence of HSA (2.7 mg/ml)
  IC50: 400 nM
[3]; absence of HSA
  concentrations required to achieve complete inhibition of haemolysis: mM concentrations
  IC50: 600 nM
[3]; presence of HSA
  decrease in potency in the presence of HSA: did not demonstrate any decrease in potency

B2: APT3073: disulphide conjugate of APT2439 and APT2258 (Myr-GSSKSPSKKDDKKPGDC (2-SPy)-NH2) (conjugate)
chain: MLQCYNCPNPTADCKTAVNCSSDFDACLITKAGLQVYNKCWKFEHCNFNDVTTRLRENELTYYCCKKDLCNFNEQLENC
peptide: GSSKSPSKKDDKKPGDC
[3]; Presence of HSA (2.7 mg/ml)
  IC50: 6 nM
[3]; absence of HSA
  increase in potency compared to APT2439: ~3 log
  IC50: 0.8 nM
[3]; presence of HSA, final concentration 2.7 mg/ml
  decrease in potency compared to its potency in the absence of HSA: 1 log

B3: APT3280: disulphide conjugate of APT2439 and APT3146 (thiopyridylated bisMyr-KSSKSPSKKDDKKPGDC) (conjugate)
chain: MLQCYNCPNPTADCKTAVNCSSDFDACLITKAGLQVYNKCWKFEHCNFNDVTTRLRENELTYYCCKKDLCNFNEQLENC
peptide: KSSKSPSKKDDKKPGDC
[3]; Presence of HSA (2.7 mg/ml)
  IC50: 0.08 nM
[3]; absence of HSA
  increase in potency compared to APT2439: ~4 log
  IC50: 0.1 nM
[3]; presence of HSA
  decrease in potency in the presence of HSA: did not demonstrate any decrease in potency
